Like-named read-outs stand apart in the source and are kept apart here.

For assay [1], the target named is parvovirus B19 (B19V) virion purified from infected patient plasma, genotype 1 (human parvovirus B19). In words: cryo-EM structure.
Assay [2] has the same target. In words: cryo-EM structure. This is another data set of the same source.

In the case of “inter-alpha-trypsin inhibitor heavy chain 4 (ITIH4) from human plasma, bound to the B19V capsid (natural protein)”, in assay [1], the occupancy of the binding sites is 19.4% and the stoichiometry N (molecules per capsid) came out at 12.

B1: serpinA3 from human plasma, bound to the B19V capsid (natural protein)
chain: HPNSPLDEENLTQENQDRGTHVDLGLASANVDFAFSLYKQLVLKAPDKNVIFSPLSISTALAFLSLGAHNTTLTEILKGLKFNLTETSEAEIHQSFQHLLRTLNQSSDELQLSMGNAMFVKEQLSLLDRFTEDAKRLYGSEAFATDFQDSAAAKKLINDYVKNGTRGKITDLIKDLDSQTMMVLVNYIFFKAKWEMPFDPQDTHQSRFYLSKKKWVMVPMMSLHHLTIPYFRDEELSCTVVELKYTGNASALFILPDQDKMEEVEAMLLPETLKRWRDSLEFREIGELYLPKFSISRDYNLNDILLQLGIEEAFTSKADLSGITGARNLAVSQVVHKAVLDVFEEGTEASAATAVKITLLSALVETRTIVRFNRPFLMIIVPTDTQNIFFMSKVTNPKQA
modifications: five extra densities at the predicted N-glycosylation sites (positions not given)
For the molecule B1, in assay [2], the occupancy of the binding sites came out at 38.3%, the stoichiometry N (molecules per capsid) is 23 and the stoichiometry N (sites occupied per capsid (of 30)) came to 22.

These data come from paper PMC11538491.
